This note sets out measurements from patent publication US20140087995A1 (published 2014).

The chains are these.
T1: human calcitonin receptor (human, UniProt P30988 25-474)
T1 construct: whole, on cells; Assay used cell membranes of the transfected BHK cells; also called hCTR; hCT
T1 sequence (looked up): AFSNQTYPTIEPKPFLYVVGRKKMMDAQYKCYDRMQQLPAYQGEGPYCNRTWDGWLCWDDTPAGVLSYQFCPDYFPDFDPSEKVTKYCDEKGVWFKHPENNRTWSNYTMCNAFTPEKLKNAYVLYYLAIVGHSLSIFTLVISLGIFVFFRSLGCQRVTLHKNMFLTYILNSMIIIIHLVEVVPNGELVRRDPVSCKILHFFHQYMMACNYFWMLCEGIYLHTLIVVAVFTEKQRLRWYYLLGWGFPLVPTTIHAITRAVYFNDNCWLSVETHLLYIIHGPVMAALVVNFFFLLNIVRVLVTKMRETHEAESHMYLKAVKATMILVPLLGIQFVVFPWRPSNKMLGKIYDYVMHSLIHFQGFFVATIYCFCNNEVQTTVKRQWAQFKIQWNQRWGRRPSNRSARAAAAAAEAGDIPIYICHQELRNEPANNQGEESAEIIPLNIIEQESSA

B1: N^ε1-[2-[2-[2-[[(4S)-4-carboxy-4-(19-carboxynonadecanoylamino)butanoyl]amino]ethoxy]ethoxy]acetyl]-[Arg17,Pro21,Pro27,Pro34,His35]-h-amylin (peptide)
peptide: K([AEEA-γGlu-C20 diacid])CNTATCATQRLANFLRHSSPNFGAIPSSTNVGPHTY-NH2
modifications: disulfide 2-7; N-terminus assumed
SMILES: CC[C@H](C)[C@H](NC(=O)[C@H](C)NC(=O)CNC(=O)[C@H](Cc1ccccc1)NC(=O)[C@H](CC(N)=O)NC(=O)[C@@H]1CCCN1C(=O)[C@H](CO)NC(=O)[C@H](CO)NC(=O)[C@H](Cc1c[nH]cn1)NC(=O)[C@H](CCCNC(=N)N)NC(=O)[C@H](CC(C)C)NC(=O)[C@H](Cc1ccccc1)NC(=O)[C@H](CC(N)=O)NC(=O)[C@H](C)NC(=O)[C@H](CC(C)C)NC(=O)[C@H](CCCNC(=N)N)NC(=O)[C@H](CCC(N)=O)NC(=O)[C@@H](NC(=O)[C@H](C)NC(=O)[C@@H]1CSSC[C@H](NC(=O)[C@@H](N)CCCCNC(=O)COCCOCCNC(=O)CC[C@H](NC(=O)CCCCCCCCCCCCCCCCCCC(=O)O)C(=O)O)C(=O)N[C@@H](CC(N)=O)C(=O)N[C@@H]([C@@H](C)O)C(=O)N[C@@H](C)C(=O)N[C@@H]([C@@H](C)O)C(=O)N1)[C@@H](C)O)C(=O)N1CCC[C@H]1C(=O)N[C@@H](CO)C(=O)N[C@@H](CO)C(=O)N[C@H](C(=O)N[C@@H](CC(N)=O)C(=O)N[C@H](C(=O)NCC(=O)N1CCC[C@H]1C(=O)N[C@@H](Cc1c[nH]cn1)C(=O)N[C@H](C(=O)N[C@@H](Cc1ccc(O)cc1)C(N)=O)[C@@H](C)O)C(C)C)[C@@H](C)O
notes: Synthetic analogue; also called compound 58
B2: N^ε1-[(4S)-4-carboxy-4-(19-carboxynonadecanoylamino)butanoyl]-[Arg14,Arg17,Pro21,Pro27,Pro31]-h-amylin (peptide)
peptide: K([γGlu-C20 diacid])CNTATCATQRLARFLRHSSPNFGAIPSSTPVGSNTY-NH2
modifications: disulfide 2-7; N-terminus assumed
SMILES: CC[C@H](C)[C@H](NC(=O)[C@H](C)NC(=O)CNC(=O)[C@H](Cc1ccccc1)NC(=O)[C@H](CC(N)=O)NC(=O)[C@@H]1CCCN1C(=O)[C@H](CO)NC(=O)[C@H](CO)NC(=O)[C@H](Cc1c[nH]cn1)NC(=O)[C@H](CCCNC(=N)N)NC(=O)[C@H](CC(C)C)NC(=O)[C@H](Cc1ccccc1)NC(=O)[C@H](CCCNC(=N)N)NC(=O)[C@H](C)NC(=O)[C@H](CC(C)C)NC(=O)[C@H](CCCNC(=N)N)NC(=O)[C@H](CCC(N)=O)NC(=O)[C@@H](NC(=O)[C@H](C)NC(=O)[C@@H]1CSSC[C@H](NC(=O)[C@@H](N)CCCCNC(=O)CC[C@H](NC(=O)CCCCCCCCCCCCCCCCCCC(=O)O)C(=O)O)C(=O)N[C@@H](CC(N)=O)C(=O)N[C@@H]([C@@H](C)O)C(=O)N[C@@H](C)C(=O)N[C@@H]([C@@H](C)O)C(=O)N1)[C@@H](C)O)C(=O)N1CCC[C@H]1C(=O)N[C@@H](CO)C(=O)N[C@@H](CO)C(=O)N[C@H](C(=O)N1CCC[C@H]1C(=O)N[C@H](C(=O)NCC(=O)N[C@@H](CO)C(=O)N[C@@H](CC(N)=O)C(=O)N[C@H](C(=O)N[C@@H](Cc1ccc(O)cc1)C(N)=O)[C@@H](C)O)C(C)C)[C@@H](C)O
notes: Synthetic analogue; also called compound 63
B3: N^ε1-[2-[2-[2-[[(4S)-4-carboxy-4-(19-carboxynonadecanoylamino)butanoyl]amino]ethoxy]ethoxy]acetyl]-[His14,Arg17,Pro21,Pro27,Pro31]-h-amylin (peptide)
peptide: K([AEEA-γGlu-C20 diacid])CNTATCATQRLAHFLRHSSPNFGAIPSSTPVGSNTY-NH2
modifications: disulfide 2-7; N-terminus assumed
SMILES: CC[C@H](C)[C@H](NC(=O)[C@H](C)NC(=O)CNC(=O)[C@H](Cc1ccccc1)NC(=O)[C@H](CC(N)=O)NC(=O)[C@@H]1CCCN1C(=O)[C@H](CO)NC(=O)[C@H](CO)NC(=O)[C@H](Cc1c[nH]cn1)NC(=O)[C@H](CCCNC(=N)N)NC(=O)[C@H](CC(C)C)NC(=O)[C@H](Cc1ccccc1)NC(=O)[C@H](Cc1c[nH]cn1)NC(=O)[C@H](C)NC(=O)[C@H](CC(C)C)NC(=O)[C@H](CCCNC(=N)N)NC(=O)[C@H](CCC(N)=O)NC(=O)[C@@H](NC(=O)[C@H](C)NC(=O)[C@@H]1CSSC[C@H](NC(=O)[C@@H](N)CCCCNC(=O)COCCOCCNC(=O)CC[C@H](NC(=O)CCCCCCCCCCCCCCCCCCC(=O)O)C(=O)O)C(=O)N[C@@H](CC(N)=O)C(=O)N[C@@H]([C@@H](C)O)C(=O)N[C@@H](C)C(=O)N[C@@H]([C@@H](C)O)C(=O)N1)[C@@H](C)O)C(=O)N1CCC[C@H]1C(=O)N[C@@H](CO)C(=O)N[C@@H](CO)C(=O)N[C@H](C(=O)N1CCC[C@H]1C(=O)N[C@H](C(=O)NCC(=O)N[C@@H](CO)C(=O)N[C@@H](CC(N)=O)C(=O)N[C@H](C(=O)N[C@@H](Cc1ccc(O)cc1)C(N)=O)[C@@H](C)O)C(C)C)[C@@H](C)O
notes: Synthetic analogue; also called compound 61
B4: N^ε1-[(4S)-4-carboxy-4-(19-carboxynonadecanoylamino)butanoyl]-[Arg17,Pro21,Pro27,His35]-h-amylin (peptide)
peptide: K([γGlu-C20 diacid])CNTATCATQRLANFLRHSSPNFGAIPSSTNVGSHTY-NH2
modifications: disulfide 2-7; N-terminus assumed
SMILES: CC[C@H](C)[C@H](NC(=O)[C@H](C)NC(=O)CNC(=O)[C@H](Cc1ccccc1)NC(=O)[C@H](CC(N)=O)NC(=O)[C@@H]1CCCN1C(=O)[C@H](CO)NC(=O)[C@H](CO)NC(=O)[C@H](Cc1c[nH]cn1)NC(=O)[C@H](CCCNC(=N)N)NC(=O)[C@H](CC(C)C)NC(=O)[C@H](Cc1ccccc1)NC(=O)[C@H](CC(N)=O)NC(=O)[C@H](C)NC(=O)[C@H](CC(C)C)NC(=O)[C@H](CCCNC(=N)N)NC(=O)[C@H](CCC(N)=O)NC(=O)[C@@H](NC(=O)[C@H](C)NC(=O)[C@@H]1CSSC[C@H](NC(=O)[C@@H](N)CCCCNC(=O)CC[C@H](NC(=O)CCCCCCCCCCCCCCCCCCC(=O)O)C(=O)O)C(=O)N[C@@H](CC(N)=O)C(=O)N[C@@H]([C@@H](C)O)C(=O)N[C@@H](C)C(=O)N[C@@H]([C@@H](C)O)C(=O)N1)[C@@H](C)O)C(=O)N1CCC[C@H]1C(=O)N[C@@H](CO)C(=O)N[C@@H](CO)C(=O)N[C@H](C(=O)N[C@@H](CC(N)=O)C(=O)N[C@H](C(=O)NCC(=O)N[C@@H](CO)C(=O)N[C@@H](Cc1c[nH]cn1)C(=O)N[C@H](C(=O)N[C@@H](Cc1ccc(O)cc1)C(N)=O)[C@@H](C)O)C(C)C)[C@@H](C)O
notes: Synthetic analogue; also called compound 60
B5: N^ε1-[(4S)-4-carboxy-4-(19-carboxynonadecanoylamino)butanoyl]-[Glu14,Arg17,Pro21,Pro27,Arg35]-h-amylin (peptide)
peptide: K([γGlu-C20 diacid])CNTATCATQRLAEFLRHSSPNFGAIPSSTNVGSRTY-NH2
modifications: disulfide 2-7; N-terminus assumed
SMILES: CC[C@H](C)[C@H](NC(=O)[C@H](C)NC(=O)CNC(=O)[C@H](Cc1ccccc1)NC(=O)[C@H](CC(N)=O)NC(=O)[C@@H]1CCCN1C(=O)[C@H](CO)NC(=O)[C@H](CO)NC(=O)[C@H](Cc1c[nH]cn1)NC(=O)[C@H](CCCNC(=N)N)NC(=O)[C@H](CC(C)C)NC(=O)[C@H](Cc1ccccc1)NC(=O)[C@H](CCC(=O)O)NC(=O)[C@H](C)NC(=O)[C@H](CC(C)C)NC(=O)[C@H](CCCNC(=N)N)NC(=O)[C@H](CCC(N)=O)NC(=O)[C@@H](NC(=O)[C@H](C)NC(=O)[C@@H]1CSSC[C@H](NC(=O)[C@@H](N)CCCCNC(=O)CC[C@H](NC(=O)CCCCCCCCCCCCCCCCCCC(=O)O)C(=O)O)C(=O)N[C@@H](CC(N)=O)C(=O)N[C@@H]([C@@H](C)O)C(=O)N[C@@H](C)C(=O)N[C@@H]([C@@H](C)O)C(=O)N1)[C@@H](C)O)C(=O)N1CCC[C@H]1C(=O)N[C@@H](CO)C(=O)N[C@@H](CO)C(=O)N[C@H](C(=O)N[C@@H](CC(N)=O)C(=O)N[C@H](C(=O)NCC(=O)N[C@@H](CO)C(=O)N[C@@H](CCCNC(=N)N)C(=O)N[C@H](C(=O)N[C@@H](Cc1ccc(O)cc1)C(N)=O)[C@@H](C)O)C(C)C)[C@@H](C)O
notes: Synthetic analogue; also called compound 51
B6: N^ε1-[2-[2-[2-[[(4S)-4-carboxy-4-(19-carboxynonadecanoylamino)butanoyl]amino]ethoxy]ethoxy]acetyl]-[Arg17,Pro21,Pro27,Pro34]-h-amylin (peptide)
peptide: K([AEEA-γGlu-C20 diacid])CNTATCATQRLANFLRHSSPNFGAIPSSTNVGPNTY-NH2
modifications: disulfide 2-7; N-terminus assumed
SMILES: CC[C@H](C)[C@H](NC(=O)[C@H](C)NC(=O)CNC(=O)[C@H](Cc1ccccc1)NC(=O)[C@H](CC(N)=O)NC(=O)[C@@H]1CCCN1C(=O)[C@H](CO)NC(=O)[C@H](CO)NC(=O)[C@H](Cc1c[nH]cn1)NC(=O)[C@H](CCCNC(=N)N)NC(=O)[C@H](CC(C)C)NC(=O)[C@H](Cc1ccccc1)NC(=O)[C@H](CC(N)=O)NC(=O)[C@H](C)NC(=O)[C@H](CC(C)C)NC(=O)[C@H](CCCNC(=N)N)NC(=O)[C@H](CCC(N)=O)NC(=O)[C@@H](NC(=O)[C@H](C)NC(=O)[C@@H]1CSSC[C@H](NC(=O)[C@@H](N)CCCCNC(=O)COCCOCCNC(=O)CC[C@H](NC(=O)CCCCCCCCCCCCCCCCCCC(=O)O)C(=O)O)C(=O)N[C@@H](CC(N)=O)C(=O)N[C@@H]([C@@H](C)O)C(=O)N[C@@H](C)C(=O)N[C@@H]([C@@H](C)O)C(=O)N1)[C@@H](C)O)C(=O)N1CCC[C@H]1C(=O)N[C@@H](CO)C(=O)N[C@@H](CO)C(=O)N[C@H](C(=O)N[C@@H](CC(N)=O)C(=O)N[C@H](C(=O)NCC(=O)N1CCC[C@H]1C(=O)N[C@@H](CC(N)=O)C(=O)N[C@H](C(=O)N[C@@H](Cc1ccc(O)cc1)C(N)=O)[C@@H](C)O)C(C)C)[C@@H](C)O
notes: Synthetic analogue; also called compound 50

Numbered stars: 1 amine (or outer) side, 2 acyl side, 3 side chain; on linkers, the order of the positions; unused ones are H or OH. Bridge positions count the residues as written; N and C are the ends. Side chains are listed from the residue outwards. Ends that are not written are not given here. * marks the point of attachment. C20 diacid = O=C(O)CCCCCCCCCCCCCCCCCCC(=O)*; γGlu = O=C(O)[C@H](CCC(=O)[*:2])N[*:1]; AEEA = NCCOCCOCC(=O)O

The assay concerns the target T1, human calcitonin receptor. As to the kind of experiment: SPA radioligand competition (125I-calcitonin), membranes of BHK cells with human calcitonin receptor. The method in brief: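 BHK hCTR membranes 35 ng/μL + SPA beads 0.05 mg/well; buffer 50 mM Hepes pH 7.4, 1 mM CaCl2, 5 mM MgCl₂, 0.1% OA, 0.02% Tween20. 120 min, 25° C., shaking. Scintillation count; IC50 by one-site binding competition.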
Background: Displacement assays read how much labelled ligand stays bound in the presence of the test substance.
B1: the IC50 was 9.63 nM.

For the molecule B2, the IC50 came out at 130 nM.

Take B3: the IC50 is 8.11 nM.

For B4, the IC50 stood at 31.4 nM.

Take B5: the half-inhibitory concentration (IC50) is 31.1 nM.

Consider B6, for which the IC50 worked out at 1.38 nM.

A word on the IC50: it is the concentration that gives 50% inhibition.
